T1: human S100A8/A9 heterodimeric antigen, His-tagged (hS100A8/A9-His) (human, UniProt P05109 1-93; P06702 1-114)
T1 sequence 1: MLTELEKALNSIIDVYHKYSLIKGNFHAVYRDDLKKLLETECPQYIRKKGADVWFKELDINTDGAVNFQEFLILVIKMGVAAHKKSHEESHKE
T1 sequence 2: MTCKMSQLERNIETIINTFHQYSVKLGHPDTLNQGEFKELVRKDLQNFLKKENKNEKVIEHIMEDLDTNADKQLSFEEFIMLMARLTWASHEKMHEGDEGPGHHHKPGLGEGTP

B1: CM-85 (antibody, human IgG4 S228P, lambda, V domains shown)
VH: EVQLVESGGGLVQPGGSLRLSCAASGYTFSSYAMSWVRQAPGKGLEWVSAISGSGGSTYYAASVKGRFTISRDNSKNTLYLQMNSLRAEDTAVYYCARKYRPSRVFDAWGQGTLVTVSS
VL: SYELTQPPSVSVAPGQTARITCSGDALGDKYASWYQQKPGQAPVLVIYEDAKRPSGIPERFSGSNSGNTATLTISGTQAEDEADYYCQSNDADAVWVFGGGTKLTVLG
B2: CM-86 (antibody, human IgG4 S228P, lambda, V domains shown)
VH: EVQLVESGGGLVQPGGSLRLSCAASGFTFSSHAMSWVRQAPGKGLEWVSAISGSGGSTYYAASVKGRFTISRDNSKNTLYLQMNSLRAEDTAVYYCARKYRPSRVFDAWGQGTLVTVSS
VL: SYELTQPPSVSVAPGQTARITCSGDALGDKYASWYQQKPGQAPVLVIYEDAKRPSGIPERFSGSNSGNTATLTISGTQAEDEADYYCQSNDADAVWVFGGGTKLTVLG
B3: CM-90 (antibody, human IgG4 S228P, lambda, V domains shown)
VH: EVQLVESGGGLVQPGGSLRLSCAASGFTFSDYAMSWVRQAPGKGLEWVSAISGSGGSTYYAASVKGRFTISRDNSKNTLYLQMNSLRAEDTAVYYCARKYRPSRVFDAWGQGTLVTVSS
VL: SYELTQPPSVSVAPGQTARITCSGDALHDKYASWYQQKPGQAPVLVIYEDAKRPSGIPERFSGSNSGNTATLTISGTQAEDEADYYCQSNDADAVWVFGGGTKLTVLG
B4: CM-92 (antibody, human IgG4 S228P, lambda, V domains shown)
VH: EVQLVESGGGLVQPGGSLRLSCAASGFTFSDYAMSWVRQAPGKGLEWVSAISGSGGSTYYAASVKGRFTISRDNSKNTLYLQMNSLRAEDTAVYYCARKYRPSRVFDAWGQGTLVTVSS
VL: SYELTQPPSVSVAPGQTARITCSGDALHDKYASWYQQKPGQAPVLVIYEDAKRPSGIPERFSGSNSGNTATLTISGTQAEDEADYYCQSNDADAYWVFGGGTKLTVLG
B5: CM-102 (antibody, human IgG4 S228P, lambda, V domains shown)
VH: EVQLVESGGGLVQPGGSLRLSCAASGFTFSDYAMSWVRQAPGKGLEWVSAISGSGGSHYYAASVKGRFTISRDNSKNTLYLQMNSLRAEDTAVYYCARKYRPSRVFDAWGQGTLVTVSS
VL: SYELTQPPSVSVAPGQTARITCSGDALGDKYASWYQQKPGQAPVLVIYEDAKRPSGIPERFSGSNSGNTATLTISGTQAEDEADYYCQSNDADAWWVFGGGTKLTVLG
B6: CM-97 (antibody, human IgG4 S228P, lambda, V domains shown)
VH: EVQLVESGGGLVQPGGSLRLSCAASGFTFSDYAMSWVRQAPGKGLEWVSAISGSGGSTYYAASVKGRFTISRDNSKNTLYLQMNSLRAEDTAVYYCARKYRPSRVFDAWGQGTLVTVSS
VL: SYELTQPPSVSVAPGQTARITCSGDALGDKYASWYQQKPGQAPVLVIYEDAKRPYGIPERFSGSNSGNTATLTISGTQAEDEADYYCQSNDADAWWVFGGGTKLTVLG
B7: CM-91 (antibody, human IgG4 S228P, lambda, V domains shown)
VH: EVQLVESGGGLVQPGGSLRLSCAASGFTFSDYAMSWVRQAPGKGLEWVSAISGSGGSTYYAASVKGRFTISRDNSKNTLYLQMNSLRAEDTAVYYCARKYRPSRVFDAWGQGTLVTVSS
VL: SYELTQPPSVSVAPGQTARITCSGDALHDKYAAWYQQKPGQAPVLVIYEDAKRPSGIPERFSGSNSGNTATLTISGTQAEDEADYYCQSNDADAVWVFGGGTKLTVLG
B8: CM-94 (antibody, human IgG4 S228P, lambda, V domains shown)
VH: EVQLVESGGGLVQPGGSLRLSCAASGFTFSDYAMSWVRQAPGKGLEWVSAISGSGGSTYYAASVKGRFTISRDNSKNTLYLQMNSLRAEDTAVYYCARKYRPSRVFDAWGQGTLVTVSS
VL: SYELTQPPSVSVAPGQTARITCSGDALHDKYASWYQQKPGQAPVLVIYEHHKRPSGIPERFSGSNSGNTATLTISGTQAEDEADYYCQSNDADAVWVFGGGTKLTVLG
B9: CM-88 (antibody, human IgG4 S228P, lambda, V domains shown)
VH: EVQLVESGGGLVQPGGSLRLSCAASGFTFSDYAMSWVRQAPGKGLEWVSAISGSGGSTYYAASVKGRFTISRDNSKNTLYLQMNSLRAEDTAVYYCARKYRPSRVFDAWGQGTLVTVSS
VL: SYELTQPPSVSVAPGQTARITCSGDALGDKYASWYQQKPGQAPVLVIYEDAKRPSGIPERFSGSNSGNTATLTISGTQAEDEADYYCQSNDADARWVFGGGTKLTVLG
B10: CM-95 (antibody, human IgG4 S228P, lambda, V domains shown)
VH: EVQLVESGGGLVQPGGSLRLSCAASGFTFSDYAMSWVRQAPGKGLEWVSAISGSGGSTYYAASVKGRFTISRDNSKNTLYLQMNSLRAEDTAVYYCARKYRPSRVFDAWGQGTLVTVSS
VL: SYELTQPPSVSVAPGQTARITCSGDALGDKYASWYQQKPGQAPVLVIYEHHKRPSGIPERFSGSNSGNTATLTISGTQAEDEADYYCQSNDADAVWVFGGGTKLTVLG
B11: CM-89 (antibody, human IgG4 S228P, lambda, V domains shown)
VH: EVQLVESGGGLVQPGGSLRLSCAASGFTFSDYAMSWVRQAPGKGLEWVSAISGSGGSTYYAASVKGRFTISRDNSKNTLYLQMNSLRAEDTAVYYCARKYRPSRVFDAWGQGTLVTVSS
VL: SYELTQPPSVSVAPGQTARITCSGDALGDKYASWYQQKPGQAPVLVIYEDAKRPSGIPERFSGSNSGNTATLTISGTQAEDEADYYCQSNDADAYWVFGGGTKLTVLG
B12: CM-87 (antibody, human IgG4 S228P, lambda, V domains shown)
VH: EVQLVESGGGLVQPGGSLRLSCAASGFTFSDYAMSWVRQAPGKGLEWVSAISGSGGSTYYAASVKGRFTISRDNSKNTLYLQMNSLRAEDTAVYYCARKYRPSRVFDAWGQGTLVTVSS
VL: SYELTQPPSVSVAPGQTARITCSGDALGDKYASWYQQKPGQAPVLVIYEDAKRPSGIPERFSGSNSGNTATLTISGTQAEDEADYYCQSNDADAWWVFGGGTKLTVLG
B13: CM-98 (antibody, human IgG4 S228P, lambda, V domains shown)
VH: EVQLVESGGGLVQPGGSLRLSCAASGFTFSDYAMSWVRQAPGKGLEWVSAISGSGGSTYYAASVKGRFTISRDNSKNTLYLQMNSLRAEDTAVYYCARKYRPSRVFDAWGQGTLVTVSS
VL: SYELTQPPSVSVAPGQTARITCSGDALGDKYASWYQQKPGQAPVLVIYEDAKRPWGIPERFSGSNSGNTATLTISGTQAEDEADYYCQSNDADAWWVFGGGTKLTVLG
B14: CM-93 (antibody, human IgG4 S228P, lambda, V domains shown)
VH: EVQLVESGGGLVQPGGSLRLSCAASGFTFSDYAMSWVRQAPGKGLEWVSAISGSGGSTYYAASVKGRFTISRDNSKNTLYLQMNSLRAEDTAVYYCARKYRPSRVFDAWGQGTLVTVSS
VL: SYELTQPPSVSVAPGQTARITCSGDALGDKYASWYQQKPGQAPVLVIYEDAKRPDGIPERFSGSNSGNTATLTISGTQAEDEADYYCQSNDADAYWVFGGGTKLTVLG
B15: CM-100 (antibody, human IgG4 S228P, lambda, V domains shown)
VH: EVQLVESGGGLVQPGGSLRLSCAASGFTFSDYAMSWVRQAPGKGLEWVSAISGSGGSHYYAASVKGRFTISRDNSKNTLYLQMNSLRAEDTAVYYCARKYRPSRVFDAWGQGTLVTVSS
VL: SYELTQPPSVSVAPGQTARITCSGDALHDKYASWYQQKPGQAPVLVIYEDAKRPSGIPERFSGSNSGNTATLTISGTQAEDEADYYCQSNDADAVWVFGGGTKLTVLG
B16: CM-103 (antibody, human IgG4 S228P, lambda, V domains shown)
VH: EVQLVESGGGLVQPGGSLRLSCAASGFTFSDYAMSWVRQAPGKGLEWVSAISGSGGSHYYAASVKGRFTISRDNSKNTLYLQMNSLRAEDTAVYYCARKYRPSRVFDAWGQGTLVTVSS
VL: SYELTQPPSVSVAPGQTARITCSGDALGDKYASWYQQKPGQAPVLVIYEDAKRPSGIPERFSGSNSGNTATLTISGTQAEDEADYYCQSNDADARWVFGGGTKLTVLG
B17: CM-101 (antibody, human IgG4 S228P, lambda, V domains shown)
VH: EVQLVESGGGLVQPGGSLRLSCAASGFTFSDYAMSWVRQAPGKGLEWVSAISGSGGSHYYAASVKGRFTISRDNSKNTLYLQMNSLRAEDTAVYYCARKYRPSRVFDAWGQGTLVTVSS
VL: SYELTQPPSVSVAPGQTARITCSGDALGDKYAAWYQQKPGQAPVLVIYEDAKRPSGIPERFSGSNSGNTATLTISGTQAEDEADYYCQSNDADAVWVFGGGTKLTVLG
B18: CM-99 (antibody, human IgG4 S228P, lambda, V domains shown)
VH: EVQLVESGGGLVQPGGSLRLSCAASGFTFSDYAMSWVRQAPGKGLEWVSAISGSGGSHYYAASVKGRFTISRDNSKNTLYLQMNSLRAEDTAVYYCARKYRPSRVFDAWGQGTLVTVSS
VL: SYELTQPPSVSVAPGQTARITCSGDALGDKYASWYQQKPGQAPVLVIYEDAKRPSGIPERFSGSNSGNTATLTISGTQAEDEADYYCQSNDADAVWVFGGGTKLTVLG
B19: CM-96 (antibody, human IgG4 S228P, lambda, V domains shown)
VH: EVQLVESGGGLVQPGGSLRLSCAASGFTFSDYAMSWVRQAPGKGLEWVSAISGSGGSTYYAASVKGRFTISRDNSKNTLYLQMNSLRAEDTAVYYCARKYRPSRVFDAWGQGTLVTVSS
VL: SYELTQPPSVSVAPGQTARITCSGDALGDKYMSWYQQKPGQAPVLVIYEDAKRPSGIPERFSGSNSGNTATLTISGTQAEDEADYYCQSNDADAWWVFGGGTKLTVLG

What follows are binders tested against T1, human S100A8/A9 heterodimeric antigen, … (assay: cell-based or functional assay).
In the case of B1, the “Relative IC50 (IC50 relative to CM-1), IL-6 release from hS100A8/A9-activated human PBMCs” value (“Relative IC50” below) is reported as 1.86 relative to CM-1. For B2, the “Relative IC50” value was 1.27 relative to CM-1. In the case of B3, the “Relative IC50” value is reported as 1.54 relative to CM-1. For B4, the “Relative IC50” value was 0.697 relative to CM-1. For B5, the “Relative IC50” value was 0.464 relative to CM-1. B6 was tested, and the “Relative IC50” value was 0.599 relative to CM-1. In the case of B7, the “Relative IC50” value is reported as 1.1 relative to CM-1. With B8 the “Relative IC50” value was 2.81 relative to CM-1. For B9, the “Relative IC50” value was 1.01 relative to CM-1. For B10, the “Relative IC50” value was 1.11 relative to CM-1. In the case of B11, the “Relative IC50” value is reported as 0.572 relative to CM-1. With B12 the “Relative IC50” value was 0.749 relative to CM-1. B13 was tested, and the “Relative IC50” value was 0.703 relative to CM-1. For B14, the “Relative IC50” value was 0.953 relative to CM-1. With B15 the “Relative IC50” value was 1.12 relative to CM-1. For B16, the “Relative IC50” value was 0.687 relative to CM-1. For B17, the “Relative IC50” value was 0.683 relative to CM-1. With B18 the “Relative IC50” value was 1.3 relative to CM-1. In the case of B19, the “Relative IC50” value is reported as 1.47 relative to CM-1.

— patent US20260184777A1 (BEIJING SUNGEN BIOMEDICAL TECHNOLOGY, published 2026)
